Assay results reported in patent publication US20150344570A1 (published 2015).

What was measured:
[1] = molecular target: T1, FcγRIIb, extracellular domain with C-terminal His tag (human, UniProt P31994 43-217); test: SPR (Biacore), antibody captured, FcγR analyte; vs GpH7-A5/GpH7-B3/GpL16-k0 = 100
T1 construct: extracellular domain; made in FreeStyle293 cells; analyte in the Biacore assay; also called 2b; FcgRIIb
T1 sequence (looked up): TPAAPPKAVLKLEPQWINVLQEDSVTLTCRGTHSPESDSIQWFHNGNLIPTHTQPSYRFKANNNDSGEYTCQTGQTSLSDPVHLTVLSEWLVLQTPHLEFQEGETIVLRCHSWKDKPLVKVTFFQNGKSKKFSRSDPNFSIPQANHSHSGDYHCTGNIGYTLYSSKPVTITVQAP
Experimental: (§1) The heterodimerized antibodies He Abs in which one of the H chains was introduced with an alteration were assayed for their binding activities to each activating FcγR and inhibitory FcγR according to the method described in Example 4. […] The activating FcγRs in FIGS. 26, 27, 28, and 29 are FcγRIa, FcγRIIa (R), FcγRIIa (H), and FcγRIIIa, respectively.
(§2) Analysis of interaction between objective antibody and the FcγR was carried out using Biacore T100 (GE Healthcare). HBS-EP+ (GE Healthcare) was used as the running buffer, and the measurement temperature was set to 25° C. Chips produced by immobilizing the antigen peptide by the amine coupling method to a Series S Sencor Chip CM5 (GE Healthcare), or alternatively, chips produced by allowing preliminarily biotinylated antigen peptides to interact with and immobilize onto a Series S Sensor Chip SA (certified) (GE Healthcare) were used. Antibodies of interest were captured onto an antigen peptide-immobilized chip, and allowed to interact to each FcγR diluted with running buffer. To regenerate and repeatedly use the chip, the antibodies captured on the chip were washed off by reacting 10 mM glycine-HCl, pH 1.5.

[2] = molecular target: T2, FcγRIIa R (FcγRIIa allotype with Arg at position 131), extracellular domain with C-terminal His tag (human, UniProt P12318 34-217); test: as above
T2 construct: extracellular domain; made in FreeStyle293 cells; analyte in the Biacore assay; also called FcγRIIa type R; 2aR
T2 sequence (looked up): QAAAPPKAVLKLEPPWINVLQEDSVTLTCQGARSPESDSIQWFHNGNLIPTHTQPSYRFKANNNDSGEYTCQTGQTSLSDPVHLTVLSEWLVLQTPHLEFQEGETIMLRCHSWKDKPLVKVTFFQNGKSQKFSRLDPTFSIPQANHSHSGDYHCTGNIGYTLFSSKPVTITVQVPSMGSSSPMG
Experimental: as §1, §2

B1: GpH7-A5/GpH7-B3 variant A330_15Y/GpL16-k0 (antibody, human IgG1, kappa)
heavy 1: not shown
heavy 2: not shown
light: DIVMTQSPLSLPVTPGEPASISCQASESLVHSNRNTYLHWYLQKPGQSPQLLIYKVSNRFSGVPDRFSGSGSGTDFTLKISRVEAEDVGVYYCSQNTHVPPTFGQGTKVEIERTVAAPSVFIFPPSDEQLKSGTASVVCLLNNFYPREAKVQWKVDNALQSGNSQESVTEQDSKDSTYSLSSTLTLSKADYEKHKVYACEVTHQGLSSPVTKSFNRGEC
notes: heterodimerized IgG1, mutation in one H chain only; also called He Ab
In the case of B1, the He/Con_2b [1] is reported as 95 relative (HeCon Ab = 100) and the He/Con_2aR [2] is reported as 102 relative (HeCon Ab = 100).

B2: GpH7-A5/GpH7-B3 variant N325_10E/GpL16-k0 (antibody, human IgG1, kappa)
heavy 1: not shown
heavy 2: not shown
light: DIVMTQSPLSLPVTPGEPASISCQASESLVHSNRNTYLHWYLQKPGQSPQLLIYKVSNRFSGVPDRFSGSGSGTDFTLKISRVEAEDVGVYYCSQNTHVPPTFGQGTKVEIERTVAAPSVFIFPPSDEQLKSGTASVVCLLNNFYPREAKVQWKVDNALQSGNSQESVTEQDSKDSTYSLSSTLTLSKADYEKHKVYACEVTHQGLSSPVTKSFNRGEC
notes: as for B1
B2 was tested, and the He/Con_2b [1] was 95.9 relative (HeCon Ab = 100) and the He/Con_2aR [2] was 105 relative (HeCon Ab = 100).

B3: GpH7-A5/GpH7-B3 variant H268_12R/GpL16-k0 (antibody, human IgG1, kappa)
heavy 1: not shown
heavy 2: not shown
light: DIVMTQSPLSLPVTPGEPASISCQASESLVHSNRNTYLHWYLQKPGQSPQLLIYKVSNRFSGVPDRFSGSGSGTDFTLKISRVEAEDVGVYYCSQNTHVPPTFGQGTKVEIERTVAAPSVFIFPPSDEQLKSGTASVVCLLNNFYPREAKVQWKVDNALQSGNSQESVTEQDSKDSTYSLSSTLTLSKADYEKHKVYACEVTHQGLSSPVTKSFNRGEC
notes: as for B1
In the case of B3, the He/Con_2b [1] is reported as 89.8 relative (HeCon Ab = 100) and the He/Con_2aR [2] is reported as 105 relative (HeCon Ab = 100).

B4: GpH7-A5/GpH7-B3 variant I336_18N/GpL16-k0 (antibody, human IgG1, kappa)
heavy 1: not shown
heavy 2: not shown
light: DIVMTQSPLSLPVTPGEPASISCQASESLVHSNRNTYLHWYLQKPGQSPQLLIYKVSNRFSGVPDRFSGSGSGTDFTLKISRVEAEDVGVYYCSQNTHVPPTFGQGTKVEIERTVAAPSVFIFPPSDEQLKSGTASVVCLLNNFYPREAKVQWKVDNALQSGNSQESVTEQDSKDSTYSLSSTLTLSKADYEKHKVYACEVTHQGLSSPVTKSFNRGEC
notes: as for B1
B4 was tested, and the He/Con_2b [1] was 97.6 relative (HeCon Ab = 100) and the He/Con_2aR [2] was 104 relative (HeCon Ab = 100).

B5: GpH7-A5/GpH7-B3 variant E333_05P/GpL16-k0 (antibody, human IgG1, kappa)
heavy 1: not shown
heavy 2: not shown
light: DIVMTQSPLSLPVTPGEPASISCQASESLVHSNRNTYLHWYLQKPGQSPQLLIYKVSNRFSGVPDRFSGSGSGTDFTLKISRVEAEDVGVYYCSQNTHVPPTFGQGTKVEIERTVAAPSVFIFPPSDEQLKSGTASVVCLLNNFYPREAKVQWKVDNALQSGNSQESVTEQDSKDSTYSLSSTLTLSKADYEKHKVYACEVTHQGLSSPVTKSFNRGEC
notes: as for B1
In the case of B5, the He/Con_2b [1] is reported as 97.7 relative (HeCon Ab = 100) and the He/Con_2aR [2] is reported as 105 relative (HeCon Ab = 100).

B6: GpH7-A5/GpH7-B3 variant P331_02A/GpL16-k0 (antibody, human IgG1, kappa)
heavy 1: not shown
heavy 2: not shown
light: DIVMTQSPLSLPVTPGEPASISCQASESLVHSNRNTYLHWYLQKPGQSPQLLIYKVSNRFSGVPDRFSGSGSGTDFTLKISRVEAEDVGVYYCSQNTHVPPTFGQGTKVEIERTVAAPSVFIFPPSDEQLKSGTASVVCLLNNFYPREAKVQWKVDNALQSGNSQESVTEQDSKDSTYSLSSTLTLSKADYEKHKVYACEVTHQGLSSPVTKSFNRGEC
notes: as for B1
With B6 the He/Con_2b [1] was 99.5 relative (HeCon Ab = 100) and the He/Con_2aR [2] was 106 relative (HeCon Ab = 100).

B7: GpH7-A5/GpH7-B3 variant P331_08L/GpL16-k0 (antibody, human IgG1, kappa)
heavy 1: not shown
heavy 2: not shown
light: DIVMTQSPLSLPVTPGEPASISCQASESLVHSNRNTYLHWYLQKPGQSPQLLIYKVSNRFSGVPDRFSGSGSGTDFTLKISRVEAEDVGVYYCSQNTHVPPTFGQGTKVEIERTVAAPSVFIFPPSDEQLKSGTASVVCLLNNFYPREAKVQWKVDNALQSGNSQESVTEQDSKDSTYSLSSTLTLSKADYEKHKVYACEVTHQGLSSPVTKSFNRGEC
notes: as for B1
In the case of B7, the He/Con_2b [1] is reported as 95.7 relative (HeCon Ab = 100) and the He/Con_2aR [2] is reported as 102 relative (HeCon Ab = 100).

B8: GpH7-A5/GpH7-B3 variant E333_07I/GpL16-k0 (antibody, human IgG1, kappa)
heavy 1: not shown
heavy 2: not shown
light: DIVMTQSPLSLPVTPGEPASISCQASESLVHSNRNTYLHWYLQKPGQSPQLLIYKVSNRFSGVPDRFSGSGSGTDFTLKISRVEAEDVGVYYCSQNTHVPPTFGQGTKVEIERTVAAPSVFIFPPSDEQLKSGTASVVCLLNNFYPREAKVQWKVDNALQSGNSQESVTEQDSKDSTYSLSSTLTLSKADYEKHKVYACEVTHQGLSSPVTKSFNRGEC
notes: as for B1
For B8, the He/Con_2b [1] was 96.2 relative (HeCon Ab = 100) and the He/Con_2aR [2] was 104 relative (HeCon Ab = 100).

B9: GpH7-A5/GpH7-B3 variant K326_12R/GpL16-k0 (antibody, human IgG1, kappa)
heavy 1: not shown
heavy 2: not shown
light: DIVMTQSPLSLPVTPGEPASISCQASESLVHSNRNTYLHWYLQKPGQSPQLLIYKVSNRFSGVPDRFSGSGSGTDFTLKISRVEAEDVGVYYCSQNTHVPPTFGQGTKVEIERTVAAPSVFIFPPSDEQLKSGTASVVCLLNNFYPREAKVQWKVDNALQSGNSQESVTEQDSKDSTYSLSSTLTLSKADYEKHKVYACEVTHQGLSSPVTKSFNRGEC
notes: as for B1
For B9, the He/Con_2b [1] was 89.2 relative (HeCon Ab = 100) and the He/Con_2aR [2] was 103 relative (HeCon Ab = 100).
